We go through 1 protein from PMC3358306.

Substrate in the series: Nc1ncnc2c1ncn2[C@@H]1O[C@H](COP(=O)(O)OP(=O)(O)OP(=O)(O)O)[C@@H](O)[C@H]1O
Briefly: purified protein. It is filed as biochemical, Archaeoglobus fulgidus. Particulars: Mg2+ ATP binding pocket.

B1: afRio1 (Rio1 kinase) (Archaeoglobus fulgidus DSM 4304) (protein)
chain: MKDLKKIESYLDKLRIKEKDGEERKIYAEVLDGRTLKTLYKLSAKGYITAMGGVISTGKEANVFYADGVFDGKPVAMAVKIYRIETSEFDKMDEYLYGDERFDMRRISPKEKVFIWTEKEFRNLERAKEAGVSVPQPYTYMKNVLLMEFIGEDELPAPTLVELGRELKELDVEGIFNDVVENVKRLYQEAELVHADLSEYNIMYIDKVYFIDMGQAVTLRHPMAESYLERDVRNIIRFFSKYGVKADFEEMLKEVKGE
notes: full-length
The term Km denotes the concentration of substrate that gives half-maximal velocity. As usually defined, the Vmax is the top rate of the reaction or transport when substrate is in excess. Regarding B1, the Km stood at 0.4 µM and the Vmax was found to be 0.000156 µmol/min.
